Where two headings read alike, the source gives them in different places.
B1: CFP–ArcA / YFP–ArcA, phosphorylated (natural protein)
chain: MQTPHILIVEDELVTRNTLKSIFEAEGYDVFEATDGAEMHQILSEYDINLVIMDINLPGKNGLLLARELREQANVALMFLTGRDNEVDKILGLEIGADDYITKPFNPRELTIRARNLLSRTMNLGTVSEERRSVESYKFNGWELDINSRSLIGPDGEQYKLPRSEFRAMLHFCENPGKIQSRAELLKKMTGRELKPHDRTVDVTIRRIRKHFESTPDTPEIIATIHGEGYRFCGDLED
modifications: phosphorylated in vitro with phosphoramidate and MgSO4 (conserved aspartate of the receiver domain; residue number not given)
B2: CFP–BaeR / YFP–BaeR, phosphorylated (natural protein)
chain: MTELPIDENTPRILIVEDEPKLGQLLIDYLRAASYAPTLISHGDQVLPYVRQTPPDLILLDLMLPGTDGLTLCREIRRFSDIPIVMVTAKIEEIDRLLGLEIGADDYICKPYSPREVVARVKTILRRCKPQRELQQQDAESPLIIDEGRFQASWRGKMLDLTPAEFRLLKTLSHEPGKVFSREQLLNHLYDDYRVVTDRTIDSHIKNLRRKLESLDAEQSFIRAVYGVGYRWEADACRIV
modifications: phosphorylated in vitro with phosphoramidate and MgSO4 (conserved aspartate of the receiver domain; residue number not given)
B3: CFP–CpxR / YFP–CpxR, phosphorylated (natural protein)
chain: MNKILLVDDDRELTSLLKELLEMEGFNVIVAHDGEQALDLLDDSIDLLLLDVMMPKKNGIDTLKALRQTHQTPVIMLTARGSELDRVLGLELGADDYLPKPFNDRELVARIRAILRRSHWSEQQQNNDNGSPTLEVDALVLNPGRQEASFDGQTLELTGTEFTLLYLLAQHLGQVVSREHLSQEVLGKRLTPFDRAIDMHISNLRRKLPDRKDGHPWFKTLRGRGYLMVSAS
modifications: phosphorylated in vitro with phosphoramidate and MgSO4 (conserved aspartate of the receiver domain; residue number not given)
B4: CFP–CreB / YFP–CreB, phosphorylated (natural protein)
chain: MQRETVWLVEDEQGIADTLVYMLQQEGFAVEVFERGLPVLDKARKQVPDVMILDVGLPDISGFELCRQLLALHPALPVLFLTARSEEVDRLLGLEIGADDYVAKPFSPREVCARVRTLLRRVKKFSTPSPVIRIGHFELNEPAAQISWFDTPLALTRYEFLLLKTLLKSPGRVWSRQQLMDSVWEDAQDTYDRTVDTHIKTLRAKLRAINPDLSPINTHRGMGYSLRGL
modifications: phosphorylated in vitro with phosphoramidate and MgSO4 (conserved aspartate of the receiver domain; residue number not given)
B5: CFP–CusR / YFP–CusR, phosphorylated (natural protein)
chain: MKLLIVEDEKKTGEYLTKGLTEAGFVVDLADNGLNGYHLAMTGDYDLIILDIMLPDVNGWDIVRMLRSANKGMPILLLTALGTIEHRVKGLELGADDYLVKPFAFAELLARVRTLLRRGAAVIIESQFQVADLMVDLVSRKVTRSGTRITLTSKEFTLLEFFLRHQGEVLPRSLIASQVWDMNFDSDTNAIDVAVKRLRGKIDNDFEPKLIQTVRGVGYMLEVPDGQ
modifications: phosphorylated in vitro with phosphoramidate and MgSO4 (conserved aspartate of the receiver domain; residue number not given)
B6: CFP–KdpE / YFP–KdpE, phosphorylated (natural protein)
chain: MTNVLIVEDEQAIRRFLRTALEGDGMRVFEAETLQRGLLEAATRKPDLIILDLGLPDGDGIEFIRDLRQWSAVPVIVLSARSEESDKIAALDAGADDYLSKPFGIGELQARLRVALRRHSATTAPDPLVKFSDVTVDLAARVIHRGEEEVHLTPIEFRLLAVLLNNAGKVLTQRQLLNQVWGPNAVEHSHYLRIYMGHLRQKLEQDPARPRHFITETGIGYRFML
modifications: phosphorylated in vitro with phosphoramidate and MgSO4 (conserved aspartate of the receiver domain; residue number not given)
B7: CFP–PhoP / YFP–PhoP, phosphorylated (natural protein)
chain: MRVLVVEDNALLRHHLKVQIQDAGHQVDDAEDAKEADYYLNEHIPDIAIVDLGLPDEDGLSLIRRWRSNDVSLPILVLTARESWQDKVEVLSAGADDYVTKPFHIEEVMARMQALMRRNSGLASQVISLPPFQVDLSRRELSINDEVIKLTAFEYTIMETLIRNNGKVVSKDSLMLQLYPDAELRESHTIDVLMGRLRKKIQAQYPQEVITTVRGQGYLFELR
modifications: phosphorylated in vitro with phosphoramidate and MgSO4 (conserved aspartate of the receiver domain; residue number not given)
B8: CFP–QseB / YFP–QseB, phosphorylated (natural protein)
chain: MRILLIEDDMLIGDGIKTGLSKMGFSVDWFTQGRQGKEALYSAPYDAVILDLTLPGMDGRDILREWREKGQREPVLILTARDALAERVEGLRLGADDYLCKPFALIEVAARLEALMRRTNGQASNELRHGNVMLDPGKRIATLAGEPLTLKPKEFALLELLMRNAGRVLSRKLIEEKLYTWDEEVTSNAVEVHVHHLRRKLGSDFIRTVHGIGYTLGEK
modifications: phosphorylated in vitro with phosphoramidate and MgSO4 (conserved aspartate of the receiver domain; residue number not given)
B9: CFP–TorR / YFP–TorR, phosphorylated (natural protein)
chain: MPHHIVIVEDEPVTQARLQSYFTQEGYTVSVTASGAGLREIMQNQSVDLILLDINLPDENGLMLTRALRERSTVGIILVTGRSDRIDRIVGLEMGADDYVTKPLELRELVVRVKNLLWRIDLARQAQPHTQDNCYRFAGYCLNVSRHTLERDGEPIKLTRAEYEMLVAFVTNPGEILSRERLLRMLSARRVENPDLRTVDVLIRRLRHKLSADLLVTQHGEGYFLAADVC
modifications: phosphorylated in vitro with phosphoramidate and MgSO4 (conserved aspartate of the receiver domain; residue number not given)

What was measured:
PhoB (Escherichia coli) [1] = molecular target: PhoB (Escherichia coli) (UniProt P0AFJ5); settings: cited from earlier work
PhoB (Escherichia coli), sequence (P0AFJ5 whole entry): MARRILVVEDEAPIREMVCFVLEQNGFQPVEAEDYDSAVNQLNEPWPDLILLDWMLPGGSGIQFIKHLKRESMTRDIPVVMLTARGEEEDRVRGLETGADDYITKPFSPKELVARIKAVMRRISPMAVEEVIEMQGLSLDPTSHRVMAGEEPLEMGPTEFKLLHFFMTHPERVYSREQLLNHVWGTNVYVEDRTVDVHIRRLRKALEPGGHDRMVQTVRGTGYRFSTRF

PhoB (Escherichia coli) [2] = molecular target: PhoB (Escherichia coli) (UniProt P0AFJ5); assay: analytical ultracentrifugation; settings: cited from earlier work
FRET or BRET = molecular target: the molecule itself; assay: FRET or BRET

| Molecule | Kd (PhoB (Escherichia coli) [1]) [µM] | Kd (PhoB (Escherichia coli) [2]) [µM] | binding result (FRET or BRET) |
| --- | --- | --- | --- |
| PhoB (from UniProt P0AFJ5) | 378 | 5.1 |  |
| B1 |  |  | binds |
| B2 |  |  | binds |
| B3 |  |  | binds |
| B4 |  |  | binds |
| B5 |  |  | binds |
| B6 |  |  | binds |
| B7 |  |  | binds |
| B8 |  |  | binds |
| B9 |  |  | binds |
